{
  "source": "paper PMC11870435",
  "about": "(2025)",
  "binders": {"B1": {"name": "F045-92 IgG (H3 RBS-specific antibody) (antibody, V domains shown)", "VH": "EVQLVESGAEVKKPGSSVKVSCRASGTFYKYAINWVRQAPGQGLEWMGGIIPFFGTTNYAQKFQGRLTITADGSTNTAYMQLDSLRSEDTAVYYCAGPSITESHYCLDCAAKDYYYGLDVWGQGTTVTVSS", "VL": "not shown"}},
  "target": "H3HK68 full length hemagglutinin WT trimer (A/Hong Kong/1/1968(H3N2)) (Influenza A virus A/Hong …, UniProt Q91MA7)",
  "sequence (Q91MA7 17-566, one chain of several)": "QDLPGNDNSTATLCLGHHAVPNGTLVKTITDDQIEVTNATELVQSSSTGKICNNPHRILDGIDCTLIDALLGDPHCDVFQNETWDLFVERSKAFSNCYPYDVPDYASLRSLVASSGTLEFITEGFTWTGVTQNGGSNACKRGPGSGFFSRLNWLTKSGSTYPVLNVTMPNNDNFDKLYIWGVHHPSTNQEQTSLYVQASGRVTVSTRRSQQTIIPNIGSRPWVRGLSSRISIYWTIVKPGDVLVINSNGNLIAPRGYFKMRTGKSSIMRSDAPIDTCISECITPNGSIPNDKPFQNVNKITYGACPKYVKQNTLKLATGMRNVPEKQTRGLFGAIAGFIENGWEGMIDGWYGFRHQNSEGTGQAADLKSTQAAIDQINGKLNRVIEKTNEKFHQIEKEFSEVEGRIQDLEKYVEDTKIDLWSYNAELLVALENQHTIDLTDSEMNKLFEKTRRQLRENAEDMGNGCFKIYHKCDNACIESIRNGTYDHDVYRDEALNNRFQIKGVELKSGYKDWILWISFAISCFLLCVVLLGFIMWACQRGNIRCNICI",
  "assay": "BLI",
  "data": [
    {"binder": "B1", "values": [
      {"measurement": "Kd", "result": 10, "unit": "nM"}
    ]}
  ]
}
